B1: unnamed (protein)
chain: MTPTTHDDIDSHPSRTPAMRRAWPAFIAGTLLSLGAQAQVAIFKEDFQGGIGQFTSAGAASVSNGRVVMKGCLTCADGSVTSKEISTVGFDALRLSYDRTIVGLDAGEYGEVAYAVDGGEWTMLWGRLDNRSGRGTIDLPAAAANQKSLRLRYRIHASDSAETFTLDNVLLEGTPRSVTHPNPYAKGPDPTASALEAKAGPFTYAATVVPSGKASGYGGGTLYHPDKEVGPFAAIVIVPGYTATQESVKWWGPLLASHGFVVMVIDTLDNRDLPGSRATQLMAAVSQVKGFNTTQGHAIQGKVDPARVGIMGWSFGGGGTLLAAQAHPELKAAIPMAPKTWGETLKTADIKVPTLIIGCQADTTAPVKDWAIPFHEGIPGSVRKAYLEIAQGGHGCVSAQFNKKAADLAMMGKYGVSWMKRFLDEDTRYSPYLCGAPHQADVNGKTVVSAYRENCPY
B2: unnamed (protein)
chain: MHTKNYRNDARTVPKRSSLAKSLLAGGILLFSAAANADIIFQEDFNSSLGQFTASGSVTTGTYGARMAAAYGSGDAFITSAPISTVGFTNISLTWTRTTSGLDSGESGIAMFSTNGSTWTTIESVQSASGVRTVALPAGAAGQSALRLRFEVDGSLSSETYTVDTIRLEGTGSGGGCEPNCEPPPTGNPYERGPAPTTSSLEASTGPFQVATTTVSSTTADGYGSGTIYHPTGVTGPFAAIAICPGYTATQTSISQWGPRLASHGFVVITINTNSTSDQPPSRATQLMAALDQLVTFSNTSGHAIFGKVDGTRRGVMGHSMGGGGSLIAARDNPSLKAAIPMAPWYSSSTNFSAIRTPTMIVACESDSIARVSSHALPFYNSIPSTTPKAFAERNNGSHNCPINNNDWWPTLNKYGVAWMKRFLDNDTRYSPWLCGAPHEAVVDGTTYSRYLSNCPY
B3: unnamed (protein)
chain: MPGYQGTQQNLQWLAPRLASWGFTVINLGTNTLTDDPDSRATQIRNAGTQLLSFSATAGNPIANKVRSVTASTGLGVSGHSMGGGGTMVVLRDDSRFTAGAPLAPYHPSGAFSGVTKPTFFLVCASDVAAPGNTYAKPWYNSMASAEKLYMSVPGDHLCPMTGYGDKAKQGKYLVSWFSRWLKGDTSYSQFLCTDSIRNVDKNNTSIVTEWMDTCPY
B4: unnamed (protein)
chain: MQKIRSIGRAGRARWGRAALTAVALAAALSAAQAQTVVGPDPTAAALEAARGPFAVSTTTIKAPRGFRAGTVFFPASVTTPMAAVAVVPGFTARQSSINWLGPRLASWGFVVVTIDTNSTSDQPAARATQLMAALKQVVDESKVAGSPFFGKVDGARLGVMGHSMGGGGSLIAARNNPTLKAAIPMAPWNLGRNFSGVSVPTLVMACQNDAVAPVAQHASPFFESIPATVDKAFLEVRGGSHLCPTTASVANQPLLGKYSVAWMKRFMDNDTRFSAFLCDAPHQADLAGNKISAYRENCPY
B5: unnamed (protein)
chain: MPPHAARPGPAQNRRGRAMAVITPRRERSSLLSRALRFTAAAATALVTAVSLAAPAHAANPYERGPNPTDALLEARSGPFSVSEERASRFGADGFGGGTIYYPRENNTYGAVAISPGYTGTQASVAWLGERIASHGFVVITIDTNTTLDQPDSRARQLNAALDYMINDASSAVRSRIDSSRLAVMGHSMGGGGSLRLASQRPDLKAAIPLTPWHLNKNWSSVRVPTLIIGADLDTIAPVLTHARPFYNSLPTSISKAYLELDGATHFAPNIPNKIIGKYSVAWLKRFVDNDTRYTQFLCPGPRDGLFGEVEEYRSTCPF
B6: unnamed (protein)
chain: MVVIRTTNTTPTLQVTLMTTISVRKSALFVFAATAVLFSMSAFSFNPPTEPEPDPGPSPCQTDCGFTRGPNPTASYLEASTGPYAVRTTDVSRYVSGFGGGTIHYPAGTTGEMGAIAIVPGFFASESSIQWWGPRLASHGFVVITISTNSVFDQPGSRSAQLENALDYVISQSNSPTSGILGMVDSSRVGAMGWSMGGGGTLRLASSERLSAAIPLAPWNTGSNNFDQIDTPTLIFACENDGTAPVSQHASPFYNRIPGATAKAYFEINNGQHSCANGGGSNGGLLGKYGVSWMKLHIDKDDRYNRFLCGPNHAANSAISEYRGTCPY
B7: unnamed (protein)
chain: MQYASTPTLRHVAQFAKASVLAATVLLASVAHAQFEKGPNPTVSALERAGTFATRTTTVSSLSASGFGGGTIYYPTAAGSYGVIAISPGFTARQSSISWMGTRIASHGFVVITIDTNTTSDQPDSRARQLKAALDKVVSLSTGRTNVLYGKVDASRLAVAGHSMGGGGSLAAARDYPTLKAAVPLAPWHTTKSFSSVRVPTLIISGENDSVAGNSSHSIPFYNSLPSSTPKGYLELNAEDHFFPQDSGEYGLVGKYMISWFKRFVDSDTRYSPFLCGAEHQAQVRVTSRVSDSRTNCPY

Substrate: BHET
Details: 120 h

Row | Protein | plate clearing
1 | B1 | not clears the plate
2 | B2 | clears the plate (z > 3 vs empty vector)
3 | B3 | not clears the plate
4 | B4 | clears the plate (z > 3 vs empty vector)
5 | B5 | not clears the plate
6 | B6 | not clears the plate
7 | B7 | not clears the plate
